Measured values reported in patent US20090110632A1 (published 2009).
Substitutions are numbered along the chain they refer to. Names may count otherwise. Blank lines part the entries; values can stand above or below the binder they belong to.

Biological target: T1, MUC1-GST fusion protein containing seven variable number tandem repeat (VNTR) region (UniProt P15941 166-305)
T1 construct: domain: seven variable number tandem, repeat (VNTR) region; Produced by the applicant; coated on the ELISA plate at 1 ug/ml; also called MUC1 antigen; antigen; not shown: GST fusion partner
Assay: ELISA, plate-coated MUC1-GST; EC50 against HMFG1 standard of the same assay
Protocol: 96-well plates (Nunc Maxisorp) were coated with 100 μl of MUC1 at 1 μg/ml in carbonate-bicarbonate buffer (Sigma C3041) overnight at 4° C. MUC1 antigen used here was produced by the applicant and is a MUC1-GST fusion protein containing seven variable number tandem, repeat (VNTR) region; VNTR is the antigen recognised by MUC1.
Plates were then washed with a wash solution of PBS (phosphate buffered saline), +0.05% Tween 20, and serial dilutions of HMFG1 samples (wildtype protein or mutant) in incubation buffer (200 ml of PBS +0.2 g BSA (bovine serum albumin)) applied to the wells and incubated at 37° C. for 1 hour.
Plates were again washed, and treated with detection antibody (1.0 μl HRP (horse radish peroxidase) anti-human IgG (BD Pharmingen, P# 555788, or Jackson P#209-035-056) +1 ml incubation buffer) at 37° C. for 30 min, washed with wash buffer, and developed with TMB (tetramethylbenzidine) reagent (100 μl TMB (Sigma, T8665) warmed to room temperature and 100 μl sulphuric acid was used to stop the reaction after approximately 6 minutes). The optical density of the plates was read at 450 nm on a Spectromax plate reader immediately after development.

T1 sequence (P15941 126-265): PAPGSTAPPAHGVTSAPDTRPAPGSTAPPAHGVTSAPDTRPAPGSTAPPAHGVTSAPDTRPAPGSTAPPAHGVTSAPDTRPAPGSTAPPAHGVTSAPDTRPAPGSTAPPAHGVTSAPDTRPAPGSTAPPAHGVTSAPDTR

fold increased affinity compared to HMFG1 standard (from EC50): ~5 fold
B1: N56A HMFG1 (antibody, human IgG1, kappa, V domains shown)
VH: QVQLVQSGAEVKKPGASVKVSCKASGYTFSAYWIEWVRQAPGKGLEWVGEILPGSANSRYNEKFKGRVTVTRDTSTNTAYMELSSLRSEDTAVYYCARSYDFAWFAYWGQGTLVTVSS
VL: DIQMTQSPSSLSASVGDRVTITCKSSQSLLYSSNQKIYLAWYQQKPGKAPKLLIYWASTRESGVPSRFSGSGSGTDFTFTISSLQPEDIATYYCQQYYRYPRTFGQGTKVEIKR

fold increased affinity compared to HMFG1 standard (from EC50): ~20 fold
B2: N56C HMFG1 (antibody, human IgG1, kappa, V domains shown)
VH: B1 VH with A56C
VL: B1 VL

fold increased affinity compared to HMFG1 standard (from EC50): ~10 fold
B3: N56G HMFG1 (antibody, human IgG1, kappa, V domains shown)
VH: B1 VH with A56G
VL: B1 VL
notes: also called N56G mutant
